The results in this text go back to article doi:10.1101/2022.07.21.501072 (bioRxiv, 2022).

Numbering of substitutions follows the chain as printed. Names may count otherwise.

B1: IcsA passenger C375S (secreted) (domain or fragment, Shigella flexneri, UniProt Q7BCK4 53-758, looked up)
chain: TPLSGTQELHFSEDNYEKLLTPVDGLSPLGAGEDGMDAWYITSSNPSHASRTKLRINSDIMISAGHGGAGDNNDGNSCGGNGGDSITGSDLSIINQGMILGGSGGSGADHNGDGGEAVTGDNLFIINGEIISGGHGGDSYSDSDGGNGGDAVTGVNLPIINKGTISGGNGGNNYGEGDGGNGGDAITGSSLSVINKGTFAGGNGGAAYGYGYDGYGGNAITGDNLSVINNGAILGGNGGHWGDAINGSNMTIANSGYIISGKEDDGTQNVAGNAIHITGGNNSLILHEGSVITGDVQVNNSSILKIINNDYTGTTPTIEGDLSAGDCTTVSLSGNKFTVSGDVSFGENSSLNLAGISSLEASGNMSFGNNVKVEAIINNWAQKDYKLLSADKGITGFSVSNISIINPLLTTGAIDYTKSYISDQNKLIYGLSWNDTDGDSHGEFNLKENAELTVSTILADNLSHHNINSWDGKSLTKSGEGTLILAEKNTYSGFTNINAGILKMGTVEAMTRTAGVIVNKGATLNFSGMNQTVNTLLNSGTVLINNINAPFLPDPVIVTGNMTLEKNGHVILNNSSSNVGQTYVQKGNWHGKGGILSLGAVLGNDNSKTDRLEIAGHASGITYVAVTNEGGSGDKTLEGVQIISTDSSDKNAFIQKGRIVAGSYDYRLKQGTVSGLNTNKWYLTSQMDNQESKQMSNQESTQMSSR
B2: IcsA passenger C379S (secreted) (domain or fragment, Shigella flexneri, UniProt Q7BCK4 53-758, looked up)
chain: B1 chain with S323C, C327S
B3: IcsA passenger C375S/C379S double mutant (secreted) (domain or fragment, Shigella flexneri, UniProt Q7BCK4 53-758, looked up)
chain: B1 chain with C327S

This data set concerns the molecule itself. Kind of data set: semi-denaturing SDS-PAGE.
B1: the “stoichiometry N” value came out at 2. B2: the “stoichiometry N” value amounted to 2. Consider B3, for which the “stoichiometry N” value was 2.
